Molecular target: Porcine circovirus 2 (PCV2) virus like particle, Baculovirus expressed capsid protein (Porcine circovirus 2)
Experiment: cryo-EM structure

“Porcine circovirus 2 (PCV2) virus like particle, Baculovirus expressed capsid protein (natural protein)” gave a stoichiometry N of 60.

From article doi:10.1101/370411
